# Biological target: KOC1 (RNA-immunoprecipitation from NSCLC cells) (Homo sapiens) (UniProt O00425)
# Assay: pulldown
# Sequence of KOC1 (RNA-immunoprecipitation from NSCLC cells) (Homo sapiens) (O00425 whole entry): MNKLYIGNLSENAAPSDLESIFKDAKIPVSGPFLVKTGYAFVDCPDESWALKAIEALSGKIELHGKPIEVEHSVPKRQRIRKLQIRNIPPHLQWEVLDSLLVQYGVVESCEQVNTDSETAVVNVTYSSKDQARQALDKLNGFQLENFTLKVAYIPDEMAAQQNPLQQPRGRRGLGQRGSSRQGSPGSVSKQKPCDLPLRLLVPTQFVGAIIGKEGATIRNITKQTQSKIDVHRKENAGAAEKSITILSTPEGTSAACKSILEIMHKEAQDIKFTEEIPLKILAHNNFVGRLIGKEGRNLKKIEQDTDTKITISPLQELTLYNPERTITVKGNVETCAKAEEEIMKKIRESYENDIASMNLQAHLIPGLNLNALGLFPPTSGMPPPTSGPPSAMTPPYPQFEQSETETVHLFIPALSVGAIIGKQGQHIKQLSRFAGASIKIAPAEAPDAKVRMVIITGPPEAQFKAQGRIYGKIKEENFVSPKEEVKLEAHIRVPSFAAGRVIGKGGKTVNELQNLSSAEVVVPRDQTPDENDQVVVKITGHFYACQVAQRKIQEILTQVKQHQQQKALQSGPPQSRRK
Substance,"binding signal (fold IP/input, sum of five cell lines) (RNA-IP microarray)",other results
WINS1 mRNA (AA741459),10.9,–
GL mRNA (AJ420489),16,–
PKP4 mRNA (AI681111),12.6,–
CCT2 mRNA (AF026166),–,"binding signal (fold IP/input, sum of five cell lines) (RNA-IP microarray, association in cell extract): 32.3"
ACTB mRNA (BC053988),–,"binding signal (fold IP/input, sum of five cell lines) (negative control): 0"
PSMB7 mRNA (BM837906),16.5,–
SBP2 mRNA (AF380995),24,–
SLC25A3 mRNA (NM_002635),21.7,–

# Source: patent publication US7700573
